In patent US20160289685:

T1: Recombinant human STAT1α (OriGene Technologies, Inc.), P42224
T1 chain: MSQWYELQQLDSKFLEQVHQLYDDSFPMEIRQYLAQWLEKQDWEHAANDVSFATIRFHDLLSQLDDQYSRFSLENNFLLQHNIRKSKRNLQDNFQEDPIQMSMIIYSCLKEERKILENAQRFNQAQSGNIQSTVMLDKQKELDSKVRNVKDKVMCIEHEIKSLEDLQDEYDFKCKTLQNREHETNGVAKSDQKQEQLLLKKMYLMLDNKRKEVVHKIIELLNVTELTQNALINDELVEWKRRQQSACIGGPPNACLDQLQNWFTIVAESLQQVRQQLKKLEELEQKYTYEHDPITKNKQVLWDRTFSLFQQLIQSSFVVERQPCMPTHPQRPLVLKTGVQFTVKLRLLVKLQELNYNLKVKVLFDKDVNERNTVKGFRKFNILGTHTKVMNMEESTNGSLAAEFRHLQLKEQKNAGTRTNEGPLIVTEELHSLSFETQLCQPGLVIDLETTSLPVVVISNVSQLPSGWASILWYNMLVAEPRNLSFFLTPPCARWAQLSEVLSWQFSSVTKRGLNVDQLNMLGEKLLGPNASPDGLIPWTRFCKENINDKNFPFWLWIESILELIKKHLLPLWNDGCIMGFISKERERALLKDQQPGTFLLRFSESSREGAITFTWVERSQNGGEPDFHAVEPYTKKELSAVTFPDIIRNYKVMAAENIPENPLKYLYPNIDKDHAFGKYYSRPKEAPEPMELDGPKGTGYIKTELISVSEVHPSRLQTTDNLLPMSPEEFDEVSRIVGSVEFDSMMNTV


Tests used:
[1] = biological target: Recombinant human STAT1α (OriGene Technologies, Inc.) (UniProt P42224)
[2] = biological target: T1, Recombinant human STAT1α (OriGene …)

| Molecule | ADP-ribosylation (protein ribosylation assay) [1] | ADP-ribosylation (protein ribosylation assay, Western blot with Streptavidin-HRP) [2] | mono-ADP-ribosylation sites by LC-MS/MS [2] |
| --- | --- | --- | --- |
| Recombinant human PARP9 (BPS Bioscience Inc.) | PARP9 did not ADP-ribosylate STAT1α | – | – |
| Recombinant human PARP14 (BPS Bioscience Inc.) (protein) KEYQELNELQKKLNINISLDHKRPLIKVLGISRDVMQARDEIEAMIKRVRLAKEQESRADCISEFIEWQYNDNNTSHCFNKMTNLKLEDARREKKKTVDVKINHRHYTVNLNTYTATDTKGHSLSVQRLTKSKVDIPAHWSDMKQQNFCVVELLPSDPEYNTVASKFNQTCSHFRIEKIERIQNPDLWNSYQAKKKTMDAKNGQTMNEKQLFHGTDAGSVPHVNRNGFNRSYAGKNAVAYGKGTYFAVNANYSANDTYSRPDANGRKHVYYVRVLTGIYTHGNHSLIVPPSKNPQNPTDLYDTVTDNVHHPSLFVAFYDYQAYPEYLITFRK | – | Recombinant PARP14 protein induced ADP-ribosylation of PARP14 itself, PARP9, and STAT1α | Glu657 and Glu705 of STAT1α were mono-ADP-ribosylated by PARP14 |
